Assay results as given in patent US20250339569A1 (3B PHARMACEUTICALS, published 2025).
Starred links: 1 amine or outer side, 2 acyl side, 3 side chain; linkers in the order of their positions; H or OH if unused. Positions of bridges follow the written chain, without caps; N, C: chain ends. Non-standard residues stand in square brackets, D forms with d. Groups on a side chain read outwards from the residue. Primed or numbered codes have the meaning given here. No end group written: not given here. *: point of attachment. Ttds(4) = 1,13-diamino-4,7,10-trioxatridecan-succinamic acid spacer, O=C(CCC(=O)[*:2])NCCCOCCOCCOCCCN[*:1]; DOTA = O=C(O)CN1CCN(CC(=O)O)CCN(CC(=O)*)CCN(CC(=O)O)CC1; Trp(5-Cl) = N[C@@H](Cc1c[nH]c2ccc(Cl)cc12)C(=O)O; Trp(5-OH) = N[C@@H](Cc1c[nH]c2ccc(O)cc12)C(=O)O; Desaminotyrosyl = O=C(CCc1ccc(O)cc1)*; mXylylene = c1cc(C[*:1])cc(C[*:2])c1; Bta = N[C@@H](Cc1csc2ccccc12)C(=O)O; Tic = O=C(O)[C@@H]1Cc2ccccc2CN1; Isovaleryl = CC(C)CC(=O)*; Apr = not defined here; AEEA = NCCOCCOCC(=O)O; Aib = CC(C)(N)C(=O)O; Ttds″ = Ttds spacer; Sar = CNCC(=O)O

The binders below were run against T1, human carbonic anhydrase 9 (CAIX) (human, UniProt Q16790 38-459) (assay: FACS competition on HT-29 cells against tracer 3BP-2776; pIC50 category B = pIC50 7.1-8.0).
Protocol: (§1) CAIX-expressing human HT-29 colorectal cancer cells (DSMZ, RRID: CVCL_0320) were cultured in McCoys's 5A modified medium (Biochrom, #F1015) including 10% fetal calf serum (FCS), 2 mM L-glutamine, 100 U/ml penicillin and 100 μg/mL streptomycin. Cells were detached with Accutase (Biolegend, #423201) and washed in FACS buffer (PBS including 1% FCS). Cells were diluted in FACS buffer to a final concentration of 500.000 cells per ml. 200 μL of the cell suspension were transferred to a u-shaped non-binding 96-well plate (Greiner) and cells were washed in ice-cold FACS buffer.
(§2) When biotinylated compounds were used an additional incubation step with 1 μg/mL APC-Streptavidin (Miltenyi; #130-106-791) in 50 μL FACS buffer for 30 minutes on ice was performed.
(§3) Cells were washed twice with ice-cold FACS buffer and analyzed in an Attune NxT flow cytometer (Thermo Fisher). Median fluorescence intensities (MFI) of the APC/Cy5-channel were calculated by Attune NxT software.

Binder | pIC50 [pic50]
VYCEGDWLTWQC-NH2 (linker 3-12 via mXylylene; not fully specified (N-terminus); also: indium complexed by DOTA) [3BP-3328] | 7.1 to 8
Ac-VYCEGAWLTWQC-NH2 (linker 3-12 via mXylylene; SMILES CC(=O)N[C@H](C(=O)N[C@@H](Cc1ccc(O)cc1)C(=O)N[C@H]1CSCc2cccc(c2)CSC[C@@H](C(N)=O)NC(=O)[C@H](CCC(N)=O)NC(=O)[C@H](Cc2c[nH]c3ccccc23)NC(=O)[C@H]([C@@H](C)O)NC(=O)[C@H](CC(C)C)NC(=O)[C@H](Cc2c[nH]c3ccccc23)NC(=O)[C@H](C)NC(=O)CNC(=O)[C@H](CCC(=O)O)NC1=O)C(C)C) [3BP-3053] | 7.1 to 8
Ac-VYCEGDWLAWQC-NH2 (linker 3-12 via mXylylene; SMILES CC(=O)N[C@H](C(=O)N[C@@H](Cc1ccc(O)cc1)C(=O)N[C@H]1CSCc2cccc(c2)CSC[C@@H](C(N)=O)NC(=O)[C@H](CCC(N)=O)NC(=O)[C@H](Cc2c[nH]c3ccccc23)NC(=O)[C@H](C)NC(=O)[C@H](CC(C)C)NC(=O)[C@H](Cc2c[nH]c3ccccc23)NC(=O)[C@H](CC(=O)O)NC(=O)CNC(=O)[C@H](CCC(=O)O)NC1=O)C(C)C) [3BP-3056] | 7.1 to 8
{DOTA-Ttds″}-VYCE[Sar]DWLTWAC-NH2 (linker 3-12 via mXylylene; not fully specified, also called DOTA-Ttds-Val-Tyr-[Cys(3MeBn)-Glu-Nmg-Asp-Trp-Leu-Thr-Trp-Ala-Cys]-NH2) [3BP-3278] | 7.1 to 8
Ac-VYCE[dP]DW[Aib]TWAC-NH2 (linker 3-12 via mXylylene; SMILES CC(=O)N[C@H](C(=O)N[C@@H](Cc1ccc(O)cc1)C(=O)N[C@H]1CSCc2cccc(c2)CSC[C@@H](C(N)=O)NC(=O)[C@H](C)NC(=O)[C@H](Cc2c[nH]c3ccccc23)NC(=O)[C@H]([C@@H](C)O)NC(=O)C(C)(C)NC(=O)[C@H](Cc2c[nH]c3ccccc23)NC(=O)[C@H](CC(=O)O)NC(=O)[C@H]2CCCN2C(=O)[C@H](CCC(=O)O)NC1=O)C(C)C, also called Ac-Val-Tyr-[Cys(3MeBn)-Glu-pro-Asp-Trp-Aib-Thr-Trp-Ala-Cys]-NH2) [3BP-3502] | 7.1 to 8
Isovaleryl-RCE[dP]DWLTWE([Apr-AEEA-DOTA])C-NH2 (linker 2-11 via 3MeBn; reading uncertain, also called Iva-Arg-[Cys(3MeBn)-Glu-pro-Asp-Trp-Leu-Thr-Trp-Glu(NH-Apr-O2Oc-DOTA′)-Cys]-NH2) [3BP-3741] | 7.1 to 8
Isovaleryl-DCE[dP]DWLTWE([Apr-AEEA-DOTA])C-NH2 (linker 2-11 via mXylylene; reading uncertain, also called Iva-Asp-[Cys(3MeBn)-Glu-pro-Asp-Trp-Leu-Thr-Trp-Glu(NH-Apr-O2Oc-DOTA′)-Cys]-NH2) [3BP-3871] | 7.1 to 8
Isovaleryl-ECE[dP]DWLTWE([Apr-AEEA-DOTA])C-NH2 (linker 2-11 via mXylylene; reading uncertain, also called Iva-Glu-[Cys(3MeBn)-Glu-pro-Asp-Trp-Leu-Thr-Trp-Glu(NH-Apr-O2Oc-DOTA′)-Cys]-NH2) [3BP-3872] | 7.1 to 8
Ac-V[Tic]CE[dP]DWLTWSC-NH2 (linker 3-12 via mXylylene; SMILES CC(=O)N[C@H](C(=O)N1Cc2ccccc2C[C@H]1C(=O)N[C@H]1CSCc2cccc(c2)CSC[C@@H](C(N)=O)NC(=O)[C@H](CO)NC(=O)[C@H](Cc2c[nH]c3ccccc23)NC(=O)[C@H]([C@@H](C)O)NC(=O)[C@H](CC(C)C)NC(=O)[C@H](Cc2c[nH]c3ccccc23)NC(=O)[C@H](CC(=O)O)NC(=O)[C@H]2CCCN2C(=O)[C@H](CCC(=O)O)NC1=O)C(C)C, also called Ac-Val-Tic-[Cys(3MeBn)-Glu-pro-Asp-Trp-Leu-Thr-Trp-Ser-Cys]-NH2) [3BP-3572] | 7.1 to 8
Desaminotyrosyl-CE[dP]DWLTWSC-NH2 (linker 1-10 via 3MeBn, also called 4OHPhp-[Cys(3MeBn)-Glu-pro-Asp-Trp-Leu-Thr-Trp-Ser-Cys]-NH2) [3BP-3731] | 7.1 to 8
Ac-VYCEGDWLTWQC[Ttds(4)][dK](DOTA)-NH2 (linker 3-12 via mXylylene; SMILES CC(=O)N[C@H](C(=O)N[C@@H](Cc1ccc(O)cc1)C(=O)N[C@H]1CSCc2cccc(c2)CSC[C@@H](C(=O)NCCCOCCOCCOCCCNC(=O)CCC(=O)N[C@H](CCCCNC(=O)CN2CCN(CC(=O)O)CCN(CC(=O)O)CCN(CC(=O)O)CC2)C(N)=O)NC(=O)[C@H](CCC(N)=O)NC(=O)[C@H](Cc2c[nH]c3ccccc23)NC(=O)[C@H]([C@@H](C)O)NC(=O)[C@H](CC(C)C)NC(=O)[C@H](Cc2c[nH]c3ccccc23)NC(=O)[C@H](CC(=O)O)NC(=O)CNC(=O)[C@H](CCC(=O)O)NC1=O)C(C)C) [3BP-2949] | 7.1 to 8
Ac-[dV]YCEGDWLTWQC-NH2 (linker 3-12 via mXylylene; SMILES CC(=O)N[C@@H](C(=O)N[C@@H](Cc1ccc(O)cc1)C(=O)N[C@H]1CSCc2cccc(c2)CSC[C@@H](C(N)=O)NC(=O)[C@H](CCC(N)=O)NC(=O)[C@H](Cc2c[nH]c3ccccc23)NC(=O)[C@H]([C@@H](C)O)NC(=O)[C@H](CC(C)C)NC(=O)[C@H](Cc2c[nH]c3ccccc23)NC(=O)[C@H](CC(=O)O)NC(=O)CNC(=O)[C@H](CCC(=O)O)NC1=O)C(C)C) [3BP-3043] | 7.1 to 8

Each binder was assayed against T1, human carbonic anhydrase 9 (CAIX) (assay: FACS competition on HT-29 cells against tracer 3BP-2776; pIC50 category C = pIC50 6.1-7.0).
Protocol: as §1, §2, §3

Binder | pIC50 [pic50]
Ac-VYCEGDW[dL]TWQC-NH2 (linker 3-12 via mXylylene; SMILES CC(=O)N[C@H](C(=O)N[C@@H](Cc1ccc(O)cc1)C(=O)N[C@H]1CSCc2cccc(c2)CSC[C@@H](C(N)=O)NC(=O)[C@H](CCC(N)=O)NC(=O)[C@H](Cc2c[nH]c3ccccc23)NC(=O)[C@H]([C@@H](C)O)NC(=O)[C@@H](CC(C)C)NC(=O)[C@H](Cc2c[nH]c3ccccc23)NC(=O)[C@H](CC(=O)O)NC(=O)CNC(=O)[C@H](CCC(=O)O)NC1=O)C(C)C, also called Ac-Val-Tyr-[Cys(3MeBn)-Glu-Gly-Asp-Trp-leu-Thr-Trp-Gln-Cys]-NH2) [3BP-3048] | 6.1 to 7
Ac-VYCEGDWL[dT]WQC-NH2 (linker 3-12 via mXylylene; SMILES CC(=O)N[C@H](C(=O)N[C@@H](Cc1ccc(O)cc1)C(=O)N[C@H]1CSCc2cccc(c2)CSC[C@@H](C(N)=O)NC(=O)[C@H](CCC(N)=O)NC(=O)[C@H](Cc2c[nH]c3ccccc23)NC(=O)[C@@H]([C@H](C)O)NC(=O)[C@H](CC(C)C)NC(=O)[C@H](Cc2c[nH]c3ccccc23)NC(=O)[C@H](CC(=O)O)NC(=O)CNC(=O)[C@H](CCC(=O)O)NC1=O)C(C)C, also called Ac-Val-Tyr-[Cys(3MeBn)-Glu-Gly-Asp-Trp-Leu-thr-Trp-Gln-Cys]-NH2) [3BP-3049] | 6.1 to 7
Ac-VYCEG[Aib]WLTWQC-NH2 (linker 3-12 via mXylylene; SMILES CC(=O)N[C@H](C(=O)N[C@@H](Cc1ccc(O)cc1)C(=O)N[C@H]1CSCc2cccc(c2)CSC[C@@H](C(N)=O)NC(=O)[C@H](CCC(N)=O)NC(=O)[C@H](Cc2c[nH]c3ccccc23)NC(=O)[C@H]([C@@H](C)O)NC(=O)[C@H](CC(C)C)NC(=O)[C@H](Cc2c[nH]c3ccccc23)NC(=O)C(C)(C)NC(=O)CNC(=O)[C@H](CCC(=O)O)NC1=O)C(C)C, also called Ac-Val-Tyr-[Cys(3MeBn)-Glu-Gly-Aib-Trp-Leu-Thr-Trp-Gln-Cys]-NH2) [3BP-3061] | 6.1 to 7
Ac-VYCE[Sar]D[Trp(5-OH)]LTWQC-NH2 (linker 3-12 via mXylylene; SMILES CC(=O)N[C@H](C(=O)N[C@@H](Cc1ccc(O)cc1)C(=O)N[C@H]1CSCc2cccc(c2)CSC[C@@H](C(N)=O)NC(=O)[C@H](CCC(N)=O)NC(=O)[C@H](Cc2c[nH]c3ccccc23)NC(=O)[C@H]([C@@H](C)O)NC(=O)[C@H](CC(C)C)NC(=O)[C@H](Cc2c[nH]c3ccc(O)cc23)NC(=O)[C@H](CC(=O)O)NC(=O)CN(C)C(=O)[C@H](CCC(=O)O)NC1=O)C(C)C, also called Ac-Val-Tyr-[Cys(3MeBn)-Glu-Nmg-Asp-Hyw-Leu-Thr-Trp-Gln-Cys]-NH2) [3BP-3310] | 6.1 to 7
Ac-VYCE[Sar]DWLT[Trp(5-Cl)]QC-NH2 (linker 3-12 via mXylylene; SMILES CC(=O)N[C@H](C(=O)N[C@@H](Cc1ccc(O)cc1)C(=O)N[C@H]1CSCc2cccc(c2)CSC[C@@H](C(N)=O)NC(=O)[C@H](CCC(N)=O)NC(=O)[C@H](Cc2c[nH]c3ccc(Cl)cc23)NC(=O)[C@H]([C@@H](C)O)NC(=O)[C@H](CC(C)C)NC(=O)[C@H](Cc2c[nH]c3ccccc23)NC(=O)[C@H](CC(=O)O)NC(=O)CN(C)C(=O)[C@H](CCC(=O)O)NC1=O)C(C)C, also called Ac-Val-Tyr-[Cys(3MeBn)-Glu-Nmg-Asp-Trp-Leu-Thr-5Clw-Gln-Cys]-NH2) [3BP-3312] | 6.1 to 7
Ac-VYCE[Sar]DWLT[Bta]QC-NH2 (linker 3-12 via mXylylene; SMILES CC(=O)N[C@H](C(=O)N[C@@H](Cc1ccc(O)cc1)C(=O)N[C@H]1CSCc2cccc(c2)CSC[C@@H](C(N)=O)NC(=O)[C@H](CCC(N)=O)NC(=O)[C@H](Cc2csc3ccccc23)NC(=O)[C@H]([C@@H](C)O)NC(=O)[C@H](CC(C)C)NC(=O)[C@H](Cc2c[nH]c3ccccc23)NC(=O)[C@H](CC(=O)O)NC(=O)CN(C)C(=O)[C@H](CCC(=O)O)NC1=O)C(C)C, also called Ac-Val-Tyr-[Cys(3MeBn)-Glu-Nmg-Asp-Trp-Leu-Thr-Bta-Gln-Cys]-NH2) [3BP-3315] | 6.1 to 7
